B1: N-24-F; numbered along this chain (parent)
chain: EASNCFAIRHFENKFAVETLICFNLFLNSQEKHY

Variants of: B1
Experiment: amyloid nucleation score relative to WT ADan (yeast Sup35 reporter selection) (log enrichment difference); higher = more amyloid nucleation
Experimental: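 Deep mutational scan of the ADan peptide fused to the Sup35 nucleation domain (SupN) in S. cerevisiae [psi-pin-], covering all single amino-acid substitutions and stop truncations (truncations = sequence up to the stop). After 24 h Cu2+ induction, cells were selected on -ADE-URA plates for 7 d at 30 °C. The nucleation score is log enrichment (output/input, deep sequencing) minus that of WT ADan, as the error-weighted mean of 3 biological replicates (DiMSum).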

Amyloid nucleation score: each site, then its substitutions
N24: F -3.3; E -3.7; V -2.78; T -2.11; Y -3.1; L -3.39; C -4.06; K -3.17; D -3.51; S -0.773; H -3.55; Q -0.992; P -0.19; G -0.57; I -3.74; W -4.76; A -1.52; R -4.05; M -3.68
C22: P -3.23; T -0.69; V 0.222; Y -2.4; W -2.89; N 0.532; S -1.65; R -3.03; Q 0.969
F26: D -0.707; P -3.34; E 0.392; G 0.778; N 0.113; I -0.509; Q -0.394; M -0.622; Y -0.164; H 0.258; S -0.00989; T -0.0939; W 0.102; L -0.42; V -0.146; R -2.51; A -0.314; K -3.31; C 0.2
E31: A -1.39; F -5.7; I -2.59; D -0.000529; C -2.07; G -0.564; H -1.64; K -1.84
F23: A 0.41; C 0.666; Y 0.115; N -0.504; H 0.305; L 0.404; D 0.717; V 0.2; M 0.264; P -1.99; E 0.416; R 0.617; I -0.248; Q 0.146; W -0.121; K 0.342; G 0.469
N28: F -0.101; M -0.403; R -2.75; Y -1.12; G 0.0833; W -1.06; E -0.442; P 0.0596; S -0.365; L -0.936; T -0.313; V -1.04; A 0.139; K -2.63; C 0.468; Q -0.0342; D -0.0589; H -1.83; I -0.963
Q30: T -0.212; Y -0.751; D 0.207; V -0.127; R -0.927; C -0.317; N -0.383; E 0.219; L -0.134; S -0.0951; G -0.112; H -0.33; P -0.153; A -0.161; I -0.931; W -0.8; F -0.531; M -0.23; K -1.41
L27: F -0.518; Y 0.163; P 0.545; D 0.457; M 0.15; K -0.947; R -1.01; H 0.303; E 0.567; T 0.731; A -0.084; Q 0.391; I 0.00956; N 0.524; V 0.187; G 0.726; C 0.66; W 0.0695; S 0.669
S29: A -0.27; G -0.16; D 0.326; I -1.29; N 0.0767; F -1.68; H -0.577; C -0.0428; T 0.043; W -1.86; Y -1.65; V -0.294; M -0.489; P -0.168; R -1.08; K 0.205; Q 0.312; E 0.219; L -0.878
L25: V -0.125; S -2.33; G -1.88; A 0.9; Q 0.382; M 0.178; Y 0.539; E -1.98; C 0.731; F 0.0915; T 0.368; N 0.307; R -3.04; I -0.254; W -2.87; K -2.69; D -1.12; P -1.7; H -2.4

— the supplement of paper PMC12067230
